The values below come from patent publication US20240084003A1 (SIMCERE ZAIMING PHARMACEUTICAL, published 2024).

For orientation: EC50 (read off the curve) means the concentration that produces a half-maximal response.

In assay [1] the target is T1, human CD22-ECD-His protein (human, UniProt P20273 20-687).
T1 construct: Made in house in HEK293E; also called hCD22-ECD-His; recombinant human CD22-ECD His protein; not shown: His tag
T1 sequence: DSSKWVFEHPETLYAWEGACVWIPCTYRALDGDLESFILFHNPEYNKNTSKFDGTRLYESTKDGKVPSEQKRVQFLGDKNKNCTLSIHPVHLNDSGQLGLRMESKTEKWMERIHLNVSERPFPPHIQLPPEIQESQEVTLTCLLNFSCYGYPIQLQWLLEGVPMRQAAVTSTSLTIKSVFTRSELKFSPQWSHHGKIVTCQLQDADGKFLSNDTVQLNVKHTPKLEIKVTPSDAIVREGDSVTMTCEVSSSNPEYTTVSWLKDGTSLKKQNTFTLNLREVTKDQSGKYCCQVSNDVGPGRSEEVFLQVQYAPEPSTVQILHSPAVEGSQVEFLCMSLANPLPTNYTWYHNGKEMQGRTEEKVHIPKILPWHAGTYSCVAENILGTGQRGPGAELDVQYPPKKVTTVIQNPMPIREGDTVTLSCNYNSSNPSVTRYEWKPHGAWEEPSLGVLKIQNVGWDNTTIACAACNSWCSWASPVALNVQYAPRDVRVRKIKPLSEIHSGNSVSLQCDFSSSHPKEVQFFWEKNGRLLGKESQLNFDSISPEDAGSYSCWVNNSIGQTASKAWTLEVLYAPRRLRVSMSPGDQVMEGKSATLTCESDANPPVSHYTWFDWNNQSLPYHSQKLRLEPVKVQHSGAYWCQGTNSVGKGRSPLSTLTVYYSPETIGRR
Kind of assay: ELISA, Ab 0.01 nM. An outline of the steps: (§1)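 Plates coated overnight at 4 °C with 2 μg/mL CD22-ECD-His and blocked with 2% BSA in PBS. Chimeric antibody bound at 37 °C for 2 h, followed by HRP-labeled secondary antibody at 37 °C for 2 h. TMB read-out developed 30 min at room temperature and stopped with 1.0 N HCl.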
(In general: An ELISA detects its analyte on a solid surface through an enzyme-linked reagent.)

Assay [2] addresses T1, human CD22-ECD-His protein. Kind of assay: ELISA, Ab 0.10 nM. An outline of the steps:
as §1

The target in assay [3] is T1, human CD22-ECD-His protein. In words: ELISA, Ab 0.001 nM. In outline: as §1
The target in assay [4] is T1, human CD22-ECD-His protein. In words: ELISA, Ab 10.00 nM. In outline:
as §1

For assay [5], the target named is T1, human CD22-ECD-His protein. In words: ELISA, Ab 0.0001 nM. An outline of the steps: as §1
Assay [6] has as its target T1, human CD22-ECD-His protein. Kind of assay: ELISA, Ab 100.00 nM. In outline:
as §1

The target of assay [7] is T1, human CD22-ECD-His protein. In words: ELISA, Ab 0.00001 nM. An outline of the steps: as §1
The target of assay [8] is T1, human CD22-ECD-His protein. Kind of assay: ELISA, human CD22-ECD-His coated. In outline:
as §1

Assay [9] deals with T2, murine CD22 protein (ACROBiosystems, SI2-M52Ha) (murine, UniProt P35329 22-708).
T2 construct: extracellular domain; also called murine CD22-ECD; murine CD22-ECD-His
T2 sequence (looked up): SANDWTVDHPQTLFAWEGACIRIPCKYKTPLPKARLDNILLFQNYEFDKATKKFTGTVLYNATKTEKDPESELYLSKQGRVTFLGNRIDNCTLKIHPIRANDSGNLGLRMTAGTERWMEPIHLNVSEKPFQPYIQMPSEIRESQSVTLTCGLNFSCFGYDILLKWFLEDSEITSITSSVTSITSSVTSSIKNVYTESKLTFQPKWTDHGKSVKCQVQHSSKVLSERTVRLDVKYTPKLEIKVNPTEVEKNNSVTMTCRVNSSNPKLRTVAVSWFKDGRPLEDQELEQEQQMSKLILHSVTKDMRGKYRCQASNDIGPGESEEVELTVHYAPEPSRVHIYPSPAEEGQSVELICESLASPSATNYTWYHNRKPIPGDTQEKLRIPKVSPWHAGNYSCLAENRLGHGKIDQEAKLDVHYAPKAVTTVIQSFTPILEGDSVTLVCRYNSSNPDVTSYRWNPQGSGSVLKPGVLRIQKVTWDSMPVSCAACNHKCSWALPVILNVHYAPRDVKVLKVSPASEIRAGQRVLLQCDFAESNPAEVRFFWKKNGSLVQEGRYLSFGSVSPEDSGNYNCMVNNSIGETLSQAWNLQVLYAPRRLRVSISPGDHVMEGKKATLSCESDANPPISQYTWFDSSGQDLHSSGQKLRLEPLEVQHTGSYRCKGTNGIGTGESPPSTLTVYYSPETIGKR
In words: ELISA, murine CD22-ECD-His coated. In outline: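 First, CD22 (2 μg/mL, PBS) was coated at 4° C overnight. Second, wells were blocked with PBS containing 2% BSA for 2 h at room temperature. Third, antibody and then HRP secondary were each incubated 2 h at 37° C. Finally, TMB colour was stopped with HCl.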

In assay [10] the target is T3, monkey CD22 protein (ACROBiosystems, SI2-R52Ha) (monkey (rhesus monkey in paragraph 148), UniProt H9G1X2 18-686).
T3 construct: extracellular domain; also called monkey CD22-ECD; monkey CD22-ECD-His
T3 sequence: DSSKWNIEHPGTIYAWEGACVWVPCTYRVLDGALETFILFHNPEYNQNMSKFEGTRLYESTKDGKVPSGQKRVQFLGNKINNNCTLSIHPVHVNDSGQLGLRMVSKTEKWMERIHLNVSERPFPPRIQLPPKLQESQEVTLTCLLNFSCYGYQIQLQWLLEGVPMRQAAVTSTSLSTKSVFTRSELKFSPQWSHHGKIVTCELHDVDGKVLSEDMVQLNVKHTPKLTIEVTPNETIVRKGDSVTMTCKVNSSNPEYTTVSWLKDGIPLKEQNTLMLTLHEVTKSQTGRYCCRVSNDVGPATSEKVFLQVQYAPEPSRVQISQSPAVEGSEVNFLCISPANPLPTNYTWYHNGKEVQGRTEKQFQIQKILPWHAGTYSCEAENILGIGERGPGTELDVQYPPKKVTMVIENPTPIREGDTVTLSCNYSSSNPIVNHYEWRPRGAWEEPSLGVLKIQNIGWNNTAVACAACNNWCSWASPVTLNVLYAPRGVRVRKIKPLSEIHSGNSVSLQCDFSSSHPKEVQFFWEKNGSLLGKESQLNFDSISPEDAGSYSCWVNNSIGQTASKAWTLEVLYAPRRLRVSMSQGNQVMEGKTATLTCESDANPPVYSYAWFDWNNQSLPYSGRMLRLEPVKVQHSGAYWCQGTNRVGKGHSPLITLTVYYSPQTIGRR
In words: ELISA, monkey CD22-ECD-His coated. The procedure:
In order to detect the binding activity of CD22 human-murine chimeric antibodies to CD22 protein, the purified human CD22-ECD-His protein obtained in Example 2 was diluted with PBS to a final concentration of 2 μg/mL, and then added to 96-well ELISA plate at 100 μl/well. The plate was sealed with plastic film and incubated overnight at 4° C., the plate was washed 2 times with PBS the next day, and then a blocking solution [PBS+2% (w/w) BSA] was added for blocking at room temperature for 2 hours. […] After incubation at 37° C. for 2 hours, the plate was washed 3 times with PBS. HRP (horseradish peroxidase)-labeled secondary antibody (purchased from Sigma, catalog number: A0170) was added, and incubated at 37° C. for 2 hours, and the plate was washed 5 times with PBS. TMB substrate was added at 50 μl/well, and incubated at room temperature for 30 minutes, then a stop solution (1.0 N HCl) was added at 50 μl/well.
In order to detect the species cross-binding activity of the chimeric antibodies, an ELISA plate was coated with commercial murine CD22 protein (ACROBiosystems, catalog number: SI2-M52Ha) and monkey CD22 protein (ACROBiosystems, catalog number: SI2-R52Ha), respectively, and the ELISA detection was performed according to the method in Example 5.1.

Assay [11] has as its target T4, human CD22 domain5-7-His (human, UniProt P20273 414-687).
T4 construct: also called hCD22 domain5-7-His; not shown: His tag
T4 sequence: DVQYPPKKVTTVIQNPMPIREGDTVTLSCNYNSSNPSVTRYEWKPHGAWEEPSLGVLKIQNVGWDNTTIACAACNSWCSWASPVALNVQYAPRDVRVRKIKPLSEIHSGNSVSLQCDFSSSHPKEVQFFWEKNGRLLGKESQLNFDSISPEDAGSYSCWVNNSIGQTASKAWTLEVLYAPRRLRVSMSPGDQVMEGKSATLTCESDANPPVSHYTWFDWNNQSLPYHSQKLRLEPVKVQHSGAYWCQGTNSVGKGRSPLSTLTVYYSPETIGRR
Kind of assay: ELISA, human CD22 domain5-7-His coated.

B1: F1.172.13 (antibody, human IgG1, kappa, V domains shown)
VH: QVTLKESGPGILQSSQTLSLTCSFSGFSLSTSGMGVSWIRQPSGKGLEWLAHIYWDDDKRYNPSLKSRLTISKDTSRNQVFLKITSVDTADTATYYCARAPPPNWDEYYFDYWGQGTTLTVSS
VL: DIQMTQSPASLSASVGETVTITCRASGNIHNSLAWYQQKQGKSPQLLVHNAKTLADGVPSRFSGSGSGTQYSLKINSLQPEDFGSYYCQHFWSTPPFGGGTKLEIKR
notes: Human-murine chimeric IgG1, kappa
Turning to B1, the OD450 in assay [1] came out at 2.11 OD450; in [2], 2.53 OD450; in [3], 0.74 OD450; in [4], 2.51 OD450; in assay [5], 0.17 OD450; in [6] it was 2.87 OD450. The OD450 in assay [7] came to 0.1 OD450. Also, the “EC50 (read off the curve)” value in assay [8] and in assay [10] was approximately 0.03 nM throughout. The binding result in assay [9] and in assay [11] was “no binding (tested: 100 nM)” in each case.

B2: F2.173.9 (antibody, human IgG1, lambda, V domains shown)
VH: EVQLVESGGDLVKPGESLKLSCEASGFTFSNYAMSWVRQTPDRRLEWVATISSIGSFTYYSDSVKGRFTISRDNVKSTLHLQMNNLKSGDTAIYFCARLGVYFDSWGQGTTLTVSS
VL: QLVLTQSSSASFSLGASAKLTCTLSSQHSTYTIEWYQQQPHKPPKFVMEIKKDGSHYTGDGIPDRFSGSSSGADRYLSISNIQPEDETIYICGVSDMIKDQFVYVFGGGTKVTVLG
notes: Human-murine chimeric IgG1, lambda
As to B2, the OD450 in [1] was found to be 1.52 OD450; in assay [2] it was 1.93 OD450; in assay [3], 0.65 OD450; in assay [4], 1.97 OD450; in [5] it was 0.32 OD450; in assay [6], 2.32 OD450. This molecule also showed an OD450 in [7] of 0.18 OD450. Also, the figures for the “EC50 (read off the curve)” value in [8] and in assay [10] were approximately 0.03 nM and 0.1 to 1 nM, respectively. Also, the binding result in assay [9] and in assay [11] was “no binding (tested: 100 nM)” throughout.
